Ho/Con_1a data for 56 molecules are collected here from patent publication US20180155451A1 (published 2018).

This assay deals with T1, FcγRIa (human, UniProt P12314 16-292).
T1 construct: extracellular domain; also called FcgRI; CD64
Kind of assay: SPR; vs GpH7-B3/GpL16-k0=100.

T1 sequence (P12314 16-292): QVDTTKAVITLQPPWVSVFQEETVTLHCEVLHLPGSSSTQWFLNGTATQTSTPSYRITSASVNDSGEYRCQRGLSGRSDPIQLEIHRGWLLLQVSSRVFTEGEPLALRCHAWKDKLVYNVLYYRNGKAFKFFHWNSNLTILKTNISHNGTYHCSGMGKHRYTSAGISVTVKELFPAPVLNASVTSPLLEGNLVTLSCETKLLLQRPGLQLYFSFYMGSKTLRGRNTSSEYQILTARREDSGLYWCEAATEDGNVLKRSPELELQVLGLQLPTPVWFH

B1: GpH7-B3 variant E269_16H/GpL16-k0 (antibody, human IgG1, kappa)
heavy: not shown
light: DIVMTQSPLSLPVTPGEPASISCQASESLVHSNRNTYLHWYLQKPGQSPQLLIYKVSNRFSGVPDRFSGSGSGTDFTLKISRVEAEDVGVYYCSQNTHVPPTFGQGTKVEIERTVAAPSVFIFPPSDEQLKSGTASVVCLLNNFYPREAKVQWKVDNALQSGNSQESVTEQDSKDSTYSLSSTLTLSKADYEKHKVYACEVTHQGLSSPVTKSFNRGEC
notes: homodimerized; also called Ho Ab E269_16H
With B1, the Ho/Con_1a is 98.4 % of control.

B2: GpH7-B3 variant L234_04F/GpL16-k0 (antibody, human IgG1, kappa)
heavy: not shown
light: B1 light
notes: homodimerized; also called Ho Ab L234_04F
For B2, the Ho/Con_1a was 93.5 % of control.

B3: GpH7-B3 variant L328_14T/GpL16-k0 (antibody, human IgG1, kappa)
heavy: not shown
light: B1 light
notes: homodimerized; also called Ho Ab L328_14T
As to B3, the Ho/Con_1a was 98.6 % of control.

B4: GpH7-B3 variant E333_16H/GpL16-k0 (antibody, human IgG1, kappa)
heavy: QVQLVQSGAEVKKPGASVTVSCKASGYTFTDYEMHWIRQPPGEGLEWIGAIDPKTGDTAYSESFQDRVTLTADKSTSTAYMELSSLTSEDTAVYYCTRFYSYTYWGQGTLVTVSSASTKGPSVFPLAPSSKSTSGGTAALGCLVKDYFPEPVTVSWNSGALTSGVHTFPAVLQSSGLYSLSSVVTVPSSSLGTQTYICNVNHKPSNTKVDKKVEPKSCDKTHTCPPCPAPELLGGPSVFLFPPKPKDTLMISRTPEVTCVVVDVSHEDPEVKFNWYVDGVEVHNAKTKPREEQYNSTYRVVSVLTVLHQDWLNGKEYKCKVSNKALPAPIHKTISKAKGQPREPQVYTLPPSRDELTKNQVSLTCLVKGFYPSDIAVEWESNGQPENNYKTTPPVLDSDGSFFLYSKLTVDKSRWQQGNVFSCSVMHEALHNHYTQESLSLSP
light: B1 light
notes: homodimerized; also called Ho Ab E333_16H
With B4, the Ho/Con_1a was 99.1 % of control.

B5: GpH7-B3 variant G236_02A/GpL16-k0 (antibody, human IgG1, kappa)
heavy: not shown
light: B1 light
notes: homodimerized; also called Ho Ab G236_02A
B5: the Ho/Con_1a was 92.4 % of control.

B6: GpH7-B3 variant L234_06M/GpL16-k0 (antibody, human IgG1, kappa)
heavy: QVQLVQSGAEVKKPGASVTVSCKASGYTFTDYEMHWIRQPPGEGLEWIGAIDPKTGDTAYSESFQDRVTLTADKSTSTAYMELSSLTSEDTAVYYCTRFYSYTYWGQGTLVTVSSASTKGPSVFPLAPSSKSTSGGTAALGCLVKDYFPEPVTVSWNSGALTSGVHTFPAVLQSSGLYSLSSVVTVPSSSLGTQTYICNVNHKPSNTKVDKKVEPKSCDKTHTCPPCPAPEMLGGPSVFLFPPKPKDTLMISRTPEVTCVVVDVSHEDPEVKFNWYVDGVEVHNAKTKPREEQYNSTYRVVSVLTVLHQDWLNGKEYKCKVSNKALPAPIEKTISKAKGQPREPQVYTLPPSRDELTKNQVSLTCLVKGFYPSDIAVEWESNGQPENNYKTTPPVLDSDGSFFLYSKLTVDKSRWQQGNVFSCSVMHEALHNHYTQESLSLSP
light: B1 light
notes: homodimerized; also called Ho Ab L234_06M
For the molecule B6, the Ho/Con_1a is 96.5 % of control.

B7: GpH7-B3 variant E269_20W/GpL16-k0 (antibody, human IgG1, kappa)
heavy: not shown
light: B1 light
notes: homodimerized; also called Ho Ab E269_20W
Take B7: the Ho/Con_1a was 98.9 % of control.

B8: GpH7-B3 variant I336_18N/GpL16-k0 (antibody, human IgG1, kappa)
heavy: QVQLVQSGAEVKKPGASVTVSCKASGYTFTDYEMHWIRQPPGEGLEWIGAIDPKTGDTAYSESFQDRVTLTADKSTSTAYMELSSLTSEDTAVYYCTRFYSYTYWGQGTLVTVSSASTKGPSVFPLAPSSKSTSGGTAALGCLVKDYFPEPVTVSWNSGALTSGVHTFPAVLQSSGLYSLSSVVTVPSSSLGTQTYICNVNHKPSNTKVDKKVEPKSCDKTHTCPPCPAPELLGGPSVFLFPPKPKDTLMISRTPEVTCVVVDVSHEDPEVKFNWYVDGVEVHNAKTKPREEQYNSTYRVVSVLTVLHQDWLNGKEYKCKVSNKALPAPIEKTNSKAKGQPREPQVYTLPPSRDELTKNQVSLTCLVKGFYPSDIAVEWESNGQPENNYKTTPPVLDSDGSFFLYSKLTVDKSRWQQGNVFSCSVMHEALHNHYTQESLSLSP
light: B1 light
notes: homodimerized; also called Ho Ab I336_18N
With B8, the Ho/Con_1a was 104 % of control.

B9: GpH7-B3 variant E333_02A/GpL16-k0 (antibody, human IgG1, kappa)
heavy: not shown
light: B1 light
notes: homodimerized; also called Ho Ab E333_02A
Take B9: the Ho/Con_1a was 96.2 % of control.

B10: GpH7-B3 variant K334_20W/GpL16-k0 (antibody, human IgG1, kappa)
heavy: not shown
light: B1 light
notes: homodimerized; also called Ho Ab K334_20W
Regarding B10, the Ho/Con_1a was 104 % of control.

B11: GpH7-B3 variant E333_05P/GpL16-k0 (antibody, human IgG1, kappa)
heavy: not shown
light: B1 light
notes: homodimerized; also called Ho Ab E333_05P
For B11, the Ho/Con_1a was 99.2 % of control.

B12: GpH7-B3 variant I332_12R/GpL16-k0 (antibody, human IgG1, kappa)
heavy: not shown
light: B1 light
notes: homodimerized; also called Ho Ab I332_12R
For the molecule B12, the Ho/Con_1a is 93.2 % of control.

B13: GpH7-B3 variant I336_01G/GpL16-k0 (antibody, human IgG1, kappa)
heavy: not shown
light: B1 light
notes: homodimerized; also called Ho Ab I336_01G
With B13, the Ho/Con_1a was 104 % of control.

B14: GpH7-B3 variant H268_05P/GpL16-k0 (antibody, human IgG1, kappa)
heavy: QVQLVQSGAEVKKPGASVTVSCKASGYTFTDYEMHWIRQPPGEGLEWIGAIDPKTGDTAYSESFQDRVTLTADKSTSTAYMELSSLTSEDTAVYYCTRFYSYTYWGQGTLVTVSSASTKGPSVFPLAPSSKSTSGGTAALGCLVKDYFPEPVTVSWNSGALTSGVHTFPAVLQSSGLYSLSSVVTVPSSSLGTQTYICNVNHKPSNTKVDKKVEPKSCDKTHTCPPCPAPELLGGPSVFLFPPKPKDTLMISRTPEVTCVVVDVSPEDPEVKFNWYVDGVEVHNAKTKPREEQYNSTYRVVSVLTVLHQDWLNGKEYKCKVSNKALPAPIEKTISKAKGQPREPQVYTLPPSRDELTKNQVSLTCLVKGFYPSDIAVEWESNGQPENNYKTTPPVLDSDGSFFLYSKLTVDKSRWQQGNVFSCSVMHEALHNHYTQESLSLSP
light: B1 light
notes: homodimerized; also called Ho Ab H268_05P
On to B14, for which the Ho/Con_1a is 108 % of control.

B15: GpH7-B3 variant I336_02A/GpL16-k0 (antibody, human IgG1, kappa)
heavy: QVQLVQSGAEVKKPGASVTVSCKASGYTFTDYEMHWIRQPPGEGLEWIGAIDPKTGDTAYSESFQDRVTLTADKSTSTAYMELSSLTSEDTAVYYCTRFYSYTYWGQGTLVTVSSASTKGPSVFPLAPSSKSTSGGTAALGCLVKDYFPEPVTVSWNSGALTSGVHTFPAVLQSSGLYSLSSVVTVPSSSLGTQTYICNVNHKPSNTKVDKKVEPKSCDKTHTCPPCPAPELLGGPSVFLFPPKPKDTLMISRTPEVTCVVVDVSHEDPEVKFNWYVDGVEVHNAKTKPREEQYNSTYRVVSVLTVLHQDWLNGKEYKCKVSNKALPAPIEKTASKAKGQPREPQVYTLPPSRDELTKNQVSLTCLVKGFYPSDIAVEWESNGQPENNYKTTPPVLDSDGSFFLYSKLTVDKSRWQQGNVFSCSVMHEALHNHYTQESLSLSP
light: B1 light
notes: homodimerized; also called Ho Ab I336_02A
For the molecule B15, the Ho/Con_1a is 103 % of control.

B16: GpH7-B3 variant E333_15Y/GpL16-k0 (antibody, human IgG1, kappa)
heavy: not shown
light: B1 light
notes: homodimerized; also called Ho Ab E333_15Y
Consider B16, for which the Ho/Con_1a was 100 % of control.

B17: GpH7-B3 variant K326_15Y/GpL16-k0 (antibody, human IgG1, kappa)
heavy: not shown
light: B1 light
notes: homodimerized; also called Ho Ab K326_15Y
Take B17: the Ho/Con_1a is 101 % of control.

B18: GpH7-B3 variant G236_20W/GpL16-k0 (antibody, human IgG1, kappa)
heavy: not shown
light: B1 light
notes: homodimerized; also called Ho Ab G236_20W; GpH7-B3-03-20W/GpL16-k0
B18: the Ho/Con_1a was 104 % of control.

B19: GpH7-B3 variant K326_18N/GpL16-k0 (antibody, human IgG1, kappa)
heavy: not shown
light: B1 light
notes: homodimerized; also called Ho Ab K326_18N
As to B19, the Ho/Con_1a is 102 % of control.

B20: GpH7-B3 variant I336_03V/GpL16-k0 (antibody, human IgG1, kappa)
heavy: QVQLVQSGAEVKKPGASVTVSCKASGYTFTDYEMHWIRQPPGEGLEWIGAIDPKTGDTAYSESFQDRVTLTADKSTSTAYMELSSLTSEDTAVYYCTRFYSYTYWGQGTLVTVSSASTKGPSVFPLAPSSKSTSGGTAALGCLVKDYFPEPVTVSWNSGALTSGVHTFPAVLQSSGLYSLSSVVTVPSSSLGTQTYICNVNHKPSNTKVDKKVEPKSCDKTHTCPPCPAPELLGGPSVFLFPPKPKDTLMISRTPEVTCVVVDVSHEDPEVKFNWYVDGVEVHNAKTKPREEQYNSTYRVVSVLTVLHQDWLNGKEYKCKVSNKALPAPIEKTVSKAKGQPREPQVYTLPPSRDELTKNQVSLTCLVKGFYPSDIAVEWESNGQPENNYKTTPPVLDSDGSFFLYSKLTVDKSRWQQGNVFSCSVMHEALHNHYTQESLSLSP
light: B1 light
notes: homodimerized; also called Ho Ab I336_03V
On to B20, for which the Ho/Con_1a was 105 % of control.

B21: GpH7-B3 variant E333_08L/GpL16-k0 (antibody, human IgG1, kappa)
heavy: not shown
light: B1 light
notes: homodimerized; also called Ho Ab E333_08L
In the case of B21, the Ho/Con_1a is 99 % of control.

B22: GpH7-B3 variant H268_14T/GpL16-k0 (antibody, human IgG1, kappa)
heavy: not shown
light: B1 light
notes: homodimerized; also called Ho Ab H268_14T
B22: the Ho/Con_1a is 109 % of control.

B23: GpH7-B3 variant K334_12R/GpL16-k0 (antibody, human IgG1, kappa)
heavy: not shown
light: B1 light
notes: homodimerized; also called Ho Ab K334_12R
B23: the Ho/Con_1a was 102 % of control.

B24: GpH7-B3 variant L328_20W/GpL16-k0 (antibody, human IgG1, kappa)
heavy: not shown
light: B1 light
notes: homodimerized; also called Ho Ab L328_20W
Turning to B24, the Ho/Con_1a was 99.9 % of control.

B25: GpH7-B3 variant E333_14T/GpL16-k0 (antibody, human IgG1, kappa)
heavy: not shown
light: B1 light
notes: homodimerized; also called Ho Ab E333_14T
As for B25, the Ho/Con_1a is 98.7 % of control.

B26: GpH7-B3 variant E333_04F/GpL16-k0 (antibody, human IgG1, kappa)
heavy: not shown
light: B1 light
notes: homodimerized; also called Ho Ab E333_04F
B26: the Ho/Con_1a was 98.4 % of control.

B27: GpH7-B3 variant L328_10E/GpL16-k0 (antibody, human IgG1, kappa)
heavy: not shown
light: B1 light
notes: homodimerized; also called Ho Ab L328_10E
With B27, the Ho/Con_1a is 101 % of control.

B28: GpH7-B3 variant E269_18N/GpL16-k0 (antibody, human IgG1, kappa)
heavy: not shown
light: B1 light
notes: homodimerized; also called Ho Ab E269_18N
As for B28, the Ho/Con_1a was 92.7 % of control.

B29: GpH7-B3 variant E333_12R/GpL16-k0 (antibody, human IgG1, kappa)
heavy: not shown
light: B1 light
notes: homodimerized; also called Ho Ab E333_12R
On to B29, for which the Ho/Con_1a was 94.2 % of control.

B30: GpH7-B3 variant E333_06M/GpL16-k0 (antibody, human IgG1, kappa)
heavy: not shown
light: B1 light
notes: homodimerized; also called Ho Ab E333_06M
For the molecule B30, the Ho/Con_1a is 99.5 % of control.

B31: GpH7-B3 variant L234_03V/GpL16-k0 (antibody, human IgG1, kappa)
heavy: not shown
light: B1 light
notes: homodimerized; also called Ho Ab L234_03V
Consider B31, for which the Ho/Con_1a was 98.2 % of control.

B32: GpH7-B3 variant K326_12R/GpL16-k0 (antibody, human IgG1, kappa)
heavy: not shown
light: B1 light
notes: homodimerized; also called Ho Ab K326_12R
As to B32, the Ho/Con_1a is 100 % of control.

B33: GpH7-B3 variant H268_12R/GpL16-k0 (antibody, human IgG1, kappa)
heavy: not shown
light: B1 light
notes: homodimerized; also called Ho Ab H268_12R
For B33, the Ho/Con_1a is 105 % of control.

B34: GpH7-B3 variant K334_10E/GpL16-k0 (antibody, human IgG1, kappa)
heavy: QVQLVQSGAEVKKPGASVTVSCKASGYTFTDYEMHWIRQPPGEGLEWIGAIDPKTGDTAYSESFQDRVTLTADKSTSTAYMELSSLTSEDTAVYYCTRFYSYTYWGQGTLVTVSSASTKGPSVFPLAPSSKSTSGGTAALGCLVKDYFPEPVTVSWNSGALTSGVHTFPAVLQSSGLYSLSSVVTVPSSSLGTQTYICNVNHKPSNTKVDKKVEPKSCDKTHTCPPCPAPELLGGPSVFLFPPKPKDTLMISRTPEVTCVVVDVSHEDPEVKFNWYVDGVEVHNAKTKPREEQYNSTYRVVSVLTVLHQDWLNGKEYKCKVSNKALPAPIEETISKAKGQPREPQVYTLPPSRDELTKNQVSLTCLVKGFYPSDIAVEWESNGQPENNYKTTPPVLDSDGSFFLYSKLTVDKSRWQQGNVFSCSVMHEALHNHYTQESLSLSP
light: B1 light
notes: homodimerized; also called Ho Ab K334_10E
In the case of B34, the Ho/Con_1a is 107 % of control.

B35: GpH7-B3 variant L234_10E/GpL16-k0 (antibody, human IgG1, kappa)
heavy: not shown
light: B1 light
notes: homodimerized; also called Ho Ab L234_10E; GpH7-B16/GpL16-k0
Regarding B35, the Ho/Con_1a is 79.6 % of control.

B36: GpH7-B3 variant E333_01G/GpL16-k0 (antibody, human IgG1, kappa)
heavy: not shown
light: B1 light
notes: homodimerized; also called Ho Ab E333_01G
B36: the Ho/Con_1a is 100 % of control.

B37: GpH7-B3 variant L234_07I/GpL16-k0 (antibody, human IgG1, kappa)
heavy: not shown
light: B1 light
notes: homodimerized; also called Ho Ab L234_07I
As to B37, the Ho/Con_1a was 99.5 % of control.

B38: GpH7-B3 variant K326_16H/GpL16-k0 (antibody, human IgG1, kappa)
heavy: not shown
light: B1 light
notes: homodimerized; also called Ho Ab K326_16H
As to B38, the Ho/Con_1a is 101 % of control.

B39: GpH7-B3 variant L234_15Y/GpL16-k0 (antibody, human IgG1, kappa)
heavy: not shown
light: B1 light
notes: homodimerized; also called Ho Ab L234_15Y; GpH7-B3-01-15Y/GpL16-k0
On to B39, for which the Ho/Con_1a was 98.9 % of control.

B40: GpH7-B3 variant H268_08L/GpL16-k0 (antibody, human IgG1, kappa)
heavy: not shown
light: B1 light
notes: homodimerized; also called Ho Ab H268_08L
Regarding B40, the Ho/Con_1a was 105 % of control.

B41: GpH7-B3 variant E269_19Q/GpL16-k0 (antibody, human IgG1, kappa)
heavy: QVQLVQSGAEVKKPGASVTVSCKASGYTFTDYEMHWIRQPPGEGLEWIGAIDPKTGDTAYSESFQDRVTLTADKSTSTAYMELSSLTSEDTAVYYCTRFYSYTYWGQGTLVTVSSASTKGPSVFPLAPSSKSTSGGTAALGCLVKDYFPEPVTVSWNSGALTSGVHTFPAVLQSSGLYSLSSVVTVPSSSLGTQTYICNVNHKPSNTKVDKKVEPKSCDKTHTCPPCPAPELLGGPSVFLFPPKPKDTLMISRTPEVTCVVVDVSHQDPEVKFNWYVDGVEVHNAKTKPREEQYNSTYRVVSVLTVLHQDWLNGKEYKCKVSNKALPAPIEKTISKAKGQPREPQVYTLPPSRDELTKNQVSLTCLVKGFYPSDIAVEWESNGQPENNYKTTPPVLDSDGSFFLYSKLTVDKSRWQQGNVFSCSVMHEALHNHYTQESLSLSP
light: B1 light
notes: homodimerized; also called Ho Ab E269_19Q
As for B41, the Ho/Con_1a was 99.6 % of control.

B42: GpH7-B3 variant E333_11K/GpL16-k0 (antibody, human IgG1, kappa)
heavy: not shown
light: B1 light
notes: homodimerized; also called Ho Ab E333_11K
Turning to B42, the Ho/Con_1a was 95.8 % of control.

B43: GpH7-B3 variant I336_04F/GpL16-k0 (antibody, human IgG1, kappa)
heavy: not shown
light: B1 light
notes: homodimerized; also called Ho Ab I336_04F
Consider B43, for which the Ho/Con_1a was 104 % of control.

B44: GpH7-B3 variant H268_07I/GpL16-k0 (antibody, human IgG1, kappa)
heavy: not shown
light: B1 light
notes: homodimerized; also called Ho Ab H268_07I
On to B44, for which the Ho/Con_1a is 106 % of control.

B45: GpH7-B3 variant E333_13S/GpL16-k0 (antibody, human IgG1, kappa)
heavy: not shown
light: B1 light
notes: homodimerized; also called Ho Ab E333_13S
Regarding B45, the Ho/Con_1a was 101 % of control.

B46: GpH7-B3 variant H268_02A/GpL16-k0 (antibody, human IgG1, kappa)
heavy: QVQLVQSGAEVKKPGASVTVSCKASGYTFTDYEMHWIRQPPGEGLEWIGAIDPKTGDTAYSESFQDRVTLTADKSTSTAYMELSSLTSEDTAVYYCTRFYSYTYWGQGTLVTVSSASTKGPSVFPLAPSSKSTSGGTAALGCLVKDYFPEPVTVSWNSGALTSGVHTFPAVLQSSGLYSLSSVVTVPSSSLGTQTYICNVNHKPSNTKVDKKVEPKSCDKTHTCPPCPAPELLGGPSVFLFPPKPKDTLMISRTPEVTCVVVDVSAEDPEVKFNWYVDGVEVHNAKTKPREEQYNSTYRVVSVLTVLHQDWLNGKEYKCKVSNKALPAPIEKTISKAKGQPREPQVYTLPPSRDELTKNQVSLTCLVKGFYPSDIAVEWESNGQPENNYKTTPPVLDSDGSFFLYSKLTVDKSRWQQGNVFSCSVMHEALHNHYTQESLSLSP
light: B1 light
notes: homodimerized; also called Ho Ab H268_02A
In the case of B46, the Ho/Con_1a was 106 % of control.

B47: GpH7-B3 variant E333_09D/GpL16-k0 (antibody, human IgG1, kappa)
heavy: not shown
light: B1 light
notes: homodimerized; also called Ho Ab E333_09D
Turning to B47, the Ho/Con_1a was 103 % of control.

B48: GpH7-B3 variant I336_10E/GpL16-k0 (antibody, human IgG1, kappa)
heavy: not shown
light: B1 light
notes: homodimerized; also called Ho Ab I336_10E
With B48, the Ho/Con_1a was 107 % of control.

B49: GpH7-B3 variant L328_19Q/GpL16-k0 (antibody, human IgG1, kappa)
heavy: not shown
light: B1 light
notes: homodimerized; also called Ho Ab L328_19Q
As for B49, the Ho/Con_1a was 99.3 % of control.

B50: GpH7-B3 variant E333_03V/GpL16-k0 (antibody, human IgG1, kappa)
heavy: not shown
light: B1 light
notes: homodimerized; also called Ho Ab E333_03V
Take B50: the Ho/Con_1a is 98.4 % of control.

B51: GpH7-B3 variant L328_03V/GpL16-k0 (antibody, human IgG1, kappa)
heavy: not shown
light: B1 light
notes: homodimerized; also called Ho Ab L328_03V
B51: the Ho/Con_1a is 99.2 % of control.

B52: GpH7-B3 variant H268_20W/GpL16-k0 (antibody, human IgG1, kappa)
heavy: not shown
light: B1 light
notes: homodimerized; also called Ho Ab H268_20W
In the case of B52, the Ho/Con_1a was 106 % of control.

B53: GpH7-B3 variant K326_14T/GpL16-k0 (antibody, human IgG1, kappa)
heavy: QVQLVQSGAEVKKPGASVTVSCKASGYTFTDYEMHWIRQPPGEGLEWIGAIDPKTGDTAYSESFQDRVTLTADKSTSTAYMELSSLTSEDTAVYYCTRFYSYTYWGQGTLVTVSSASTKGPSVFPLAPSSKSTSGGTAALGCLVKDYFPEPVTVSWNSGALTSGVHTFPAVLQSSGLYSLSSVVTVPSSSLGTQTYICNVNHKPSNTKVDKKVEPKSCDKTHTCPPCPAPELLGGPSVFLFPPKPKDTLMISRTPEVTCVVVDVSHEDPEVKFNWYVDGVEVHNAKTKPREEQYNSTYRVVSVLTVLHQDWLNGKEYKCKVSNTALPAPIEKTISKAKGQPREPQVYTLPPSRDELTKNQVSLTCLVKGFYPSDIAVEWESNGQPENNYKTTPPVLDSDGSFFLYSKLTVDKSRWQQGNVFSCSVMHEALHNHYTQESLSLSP
light: B1 light
notes: homodimerized; also called Ho Ab K326_14T
For B53, the Ho/Con_1a was 103 % of control.

B54: GpH7-B3 variant E333_07I/GpL16-k0 (antibody, human IgG1, kappa)
heavy: not shown
light: B1 light
notes: homodimerized; also called Ho Ab E333_07I
For B54, the Ho/Con_1a is 99.9 % of control.

B55: GpH7-B3 variant I336_06M/GpL16-k0 (antibody, human IgG1, kappa)
heavy: not shown
light: B1 light
notes: homodimerized; also called Ho Ab I336_06M
With B55, the Ho/Con_1a is 104 % of control.

B56: GpH7-B3 variant K334_06M/GpL16-k0 (antibody, human IgG1, kappa)
heavy: not shown
light: B1 light
notes: homodimerized; also called Ho Ab K334_06M
Turning to B56, the Ho/Con_1a is 104 % of control.
